Tests used:
[1] = biological target: HLA-A*01:01; assay: IEDB peptide-MHC binding, purified MHC/direct/fluorescence; filed as Kd, often an IC50 or EC50 that approximates it; ≥ and ≤ were set here for values at or beyond the usual limits of such assays
[2] = biological target: HLA-A*80:01; assay: as above
[3] = biological target: HLA-A*03:01; assay: as above
[4] = biological target: HLA-A*11:01; assay: as above
[5] = biological target: HLA-A*26:01; assay: as above
[6] = biological target: HLA-A*31:01; assay: as above
[7] = biological target: HLA-B*15:01; assay: as above
[8] = biological target: HLA-B*15:09; assay: as above; settings: source organism: Vibrio vulnificus YJ016
[9] = biological target: HLA-B*15:17; assay: as above; settings: source organism: Vibrio vulnificus YJ016
[10] = biological target: HLA-B*27:05; assay: as above
[11] = biological target: HLA-B*38:01; assay: as above; settings: source organism: Vibrio vulnificus YJ016
[12] = biological target: HLA-B*40:01; assay: as above
[13] = biological target: HLA-B*46:01; assay: as above
[14] = biological target: HLA-B*48:01; assay: as above; settings: source organism: Vibrio vulnificus YJ016
[15] = biological target: HLA-B*57:01; assay: as above
[16] = biological target: HLA-B*58:01; assay: as above
[17] = biological target: HLA-A*02:01; assay: IEDB peptide-MHC binding, purified MHC/competitive/fluorescence; filed as Kd, often an IC50 or EC50 that approximates it; ≥ and ≤ were set here for values at or beyond the usual limits of such assays; settings: source organism: Vibrio vulnificus YJ016
[18] = biological target: HLA-A*02:06; assay: as above
[19] = biological target: HLA-A*30:01; assay: as above; settings: source organism: Vibrio vulnificus YJ016
[20] = biological target: HLA-A*69:01; assay: as above; settings: source organism: Vibrio vulnificus YJ016
[21] = biological target: HLA-B*08:01; assay: as above; settings: source organism: Vibrio vulnificus YJ016
[22] = biological target: HLA-B*18:01; assay: as above; settings: source organism: Vibrio vulnificus YJ016
[23] = biological target: HLA-B*39:01; assay: as above; settings: source organism: Vibrio vulnificus YJ016
[24] = biological target: HLA-A*02:01; assay: IEDB peptide-MHC binding, purified MHC/direct/fluorescence; filed as Kd, often an IC50 or EC50 that approximates it; ≥ and ≤ were set here for values at or beyond the usual limits of such assays
[25] = biological target: HLA-A*24:02; assay: as above
[26] = biological target: HLA-A*24:03; assay: as above; settings: source organism: Influenza A virus (A/Hong Kong/516/97(H5N1))
[27] = biological target: HLA-A*68:02; assay: as above; settings: source organism: Influenza A virus (A/Hong Kong/516/97(H5N1))
[28] = biological target: HLA-A*69:01; assay: as above
[29] = biological target: HLA-B*07:02; assay: as above
[30] = biological target: HLA-B*08:01; assay: as above
[31] = biological target: HLA-B*18:01; assay: as above
[32] = biological target: HLA-B*44:02; assay: as above
[33] = biological target: HLA-A*26:02; assay: IEDB peptide-MHC binding, purified MHC/competitive/fluorescence; filed as Kd, often an IC50 or EC50 that approximates it; ≥ and ≤ were set here for values at or beyond the usual limits of such assays; settings: source organism: Influenza A virus (A/Fort Monmouth/1/1947-mouse adapted(H1N1))
[34] = biological target: HLA-B*15:17; assay: as above; settings: source organism: Influenza A virus (A/Fort Monmouth/1/1947-mouse adapted(H1N1))
[35] = biological target: HLA-A*02:50; assay: as above; settings: source organism: Shigella boydii CDC 3083-94
[36] = biological target: HLA-B*08:02; assay: IEDB peptide-MHC binding, purified MHC/direct/fluorescence; filed as Kd, often an IC50 or EC50 that approximates it; ≥ and ≤ were set here for values at or beyond the usual limits of such assays; settings: source organism: Influenza A virus H3N2
[37] = biological target: HLA-C*04:01; assay: as above
[38] = biological target: HLA-A*24:02; assay: IEDB peptide-MHC binding, purified MHC/competitive/fluorescence; filed as Kd, often an IC50 or EC50 that approximates it; ≥ and ≤ were set here for values at or beyond the usual limits of such assays; settings: source organism: Shigella flexneri 5 str. 8401
[39] = biological target: HLA-A*02:11; assay: IEDB peptide-MHC binding, purified MHC/direct/fluorescence; filed as Kd, often an IC50 or EC50 that approximates it; ≥ and ≤ were set here for values at or beyond the usual limits of such assays; settings: source organism: Amur virus Solovey/AP63/1999
[40] = biological target: HLA-A*02:12; assay: as above; settings: source organism: Amur virus Solovey/AP63/1999
[41] = biological target: HLA-C*07:02; assay: as above; settings: source organism: Hantaan virus 76-118
[42] = source organism: Burkholderia mallei
[43] = source organism: Vibrio vulnificus YJ016
[44] = source organism: Influenza A virus (A/Hong Kong/516/97(H5N1))
[45] = source organism: Influenza A virus (A/Puerto Rico/8/34/Mount Sinai(H1N1))
[46] = source organism: Escherichia coli O157:H7
[47] = source organism: Influenza A virus (A/Switzerland/8808/2002(H1N1))
[48] = source organism: Francisella tularensis subsp. holarctica LVS

Measured: Kd

ALRRRTGTR
≥ 20 µM: [1]; [42] | [2]; [42]

EPADHLAIM
0.691 µM: [17]
≥ 20 µM: [1]; [43] | [3]; [43] | [4]; [43] | [6]; [43] | [7]; [43] | [8] | [9] | [10]; [43] | [11] | [12]; [43] | [13]; [43] | [14] | [15]; [43] | [16]; [43] | [18]; [43] | [19] | [20] | [21]
0.047 µM: [5]; [43]
3 µM: [22]
1.21 µM: [23]

SYINRTGTF
0.0054 µM: [25]; [44]
0.0018 µM: [26]
3.67 µM: [33]
≥ 20 µM: [1]; [44] | [24]; [44] | [3]; [44] | [4]; [44] | [5]; [44] | [6]; [44] | [27] | [28]; [44] | [29]; [44] | [30]; [44] | [31]; [44] | [10]; [44] | [12]; [44] | [32]; [44] | [15]; [44] | [16]; [44] | [18]; source organism: Influenza A virus (A/Fort Monmouth/1/1947-mouse adapted(H1N1))
0.477 µM: [34]
0.584 µM: [7]; [45]

GMAEDLQSL
≥ 20 µM: [1]; [46] | [3]; [46] | [4]; [46] | [25]; [46] | [6]; [46] | [29]; [46] | [31]; [46] | [10]; [46] | [12]; [46] | [32]; [46] | [16]; [46]
1 µM: [28]; [46]
≤ 0.0001 µM: [35]
0.39 µM: [7]; [46]
0.0657 µM: [24]; [46]

VPAQNAIST
≥ 20 µM: [1]; [47] | [24]; [47] | [3]; [47] | [4]; [47] | [25]; [47] | [5]; source organism: Influenza A virus H3N2 | [6]; [47] | [28]; [47] | [30]; [47] | [36] | [7]; [47] | [31]; [47] | [10]; [47] | [12]; [47] | [13]; [47] | [16]; [47]
0.063 µM: [29]; [45]

VSITNPFLF
0.0057 µM: [38]
≥ 20 µM: [37]; source organism: Shigella flexneri 5 str. 8401

SMLSYGNVL
0.075 µM: [40]
0.003 µM: [39]
≤ 0.001 µM: [24]; source organism: Amur virus
0.614 µM: [41]

LTDKSGSEY
0.29 µM: [2]; [48]
0.0012 µM: [1]; [48]

STEFIPNLF
≥ 20 µM: [37]; source organism: human gammaherpesvirus 4
